Reference: patent US20030096225A1
pKd: −log10 of the molar value.

Target: purified recombinant Ep-CAM produced in insect cells (UniProt P16422)
Test: SPR (BIAcore), Ep-CAM coupled to CM5 chip, control antibody

purified recombinant Ep-CAM produced in insect cells, sequence (P16422 24-265 limits assumed): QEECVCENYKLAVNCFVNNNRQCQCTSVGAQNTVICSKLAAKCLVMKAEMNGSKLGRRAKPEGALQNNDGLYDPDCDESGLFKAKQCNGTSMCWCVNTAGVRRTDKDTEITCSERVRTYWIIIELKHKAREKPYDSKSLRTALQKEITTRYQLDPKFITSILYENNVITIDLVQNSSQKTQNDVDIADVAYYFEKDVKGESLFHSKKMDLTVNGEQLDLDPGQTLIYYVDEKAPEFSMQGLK

murine anti-Ep-CAM antibody 323/A3
pKd: 9.30
